We go through two molecules from publication PMC12830165 (The Journal of Biological Chemistry, 2025).

Series [1] deals with T1, human ORC1-5 (HsORC1-5, with ORC1ΔN) (Homo sapiens, UniProt O43929+Q13415, O43929:N78S/Q13415:R720Q).
T1 construct: ORC1 N-terminally truncated (ORC1ΔN399, probably starts at residue 400), ORC4 with natural variant N78S; 6xHis-TEV (ORC1) and MBP-TEV (ORC4) tags cleaved; baculovirus/High Five cells; ORC6 not included; with Origin recognition complex subunit 2; Origin recognition complex subunit 3; Origin recognition complex subunit 5
T1 sequence (Q13415 400-861 R720Q): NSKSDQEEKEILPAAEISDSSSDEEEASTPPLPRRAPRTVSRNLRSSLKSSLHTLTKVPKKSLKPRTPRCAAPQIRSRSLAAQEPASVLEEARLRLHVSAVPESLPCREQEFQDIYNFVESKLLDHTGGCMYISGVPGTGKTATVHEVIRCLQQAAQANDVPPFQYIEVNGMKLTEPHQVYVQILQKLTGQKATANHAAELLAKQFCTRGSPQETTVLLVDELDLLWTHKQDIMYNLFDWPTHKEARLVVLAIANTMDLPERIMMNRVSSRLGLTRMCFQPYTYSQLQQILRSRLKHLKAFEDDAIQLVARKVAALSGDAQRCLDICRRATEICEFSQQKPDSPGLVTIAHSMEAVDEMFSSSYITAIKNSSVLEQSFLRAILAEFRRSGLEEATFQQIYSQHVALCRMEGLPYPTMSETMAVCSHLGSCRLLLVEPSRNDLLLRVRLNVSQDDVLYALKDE
T1 sequence (O43929 whole entry N78S, the tested form may be a part): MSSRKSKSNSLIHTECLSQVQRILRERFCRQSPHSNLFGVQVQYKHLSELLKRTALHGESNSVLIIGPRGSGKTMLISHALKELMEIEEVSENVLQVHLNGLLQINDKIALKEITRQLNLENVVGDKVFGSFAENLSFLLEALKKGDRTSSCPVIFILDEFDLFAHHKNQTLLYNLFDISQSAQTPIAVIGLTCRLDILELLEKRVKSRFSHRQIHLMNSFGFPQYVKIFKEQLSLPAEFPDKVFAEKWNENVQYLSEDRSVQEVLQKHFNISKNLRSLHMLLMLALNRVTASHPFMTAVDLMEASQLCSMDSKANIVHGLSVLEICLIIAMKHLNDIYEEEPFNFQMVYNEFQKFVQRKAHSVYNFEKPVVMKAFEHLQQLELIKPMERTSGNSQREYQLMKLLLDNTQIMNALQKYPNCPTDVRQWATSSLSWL
T1 sequence (Q13416 whole entry partner, the tested form may be a part): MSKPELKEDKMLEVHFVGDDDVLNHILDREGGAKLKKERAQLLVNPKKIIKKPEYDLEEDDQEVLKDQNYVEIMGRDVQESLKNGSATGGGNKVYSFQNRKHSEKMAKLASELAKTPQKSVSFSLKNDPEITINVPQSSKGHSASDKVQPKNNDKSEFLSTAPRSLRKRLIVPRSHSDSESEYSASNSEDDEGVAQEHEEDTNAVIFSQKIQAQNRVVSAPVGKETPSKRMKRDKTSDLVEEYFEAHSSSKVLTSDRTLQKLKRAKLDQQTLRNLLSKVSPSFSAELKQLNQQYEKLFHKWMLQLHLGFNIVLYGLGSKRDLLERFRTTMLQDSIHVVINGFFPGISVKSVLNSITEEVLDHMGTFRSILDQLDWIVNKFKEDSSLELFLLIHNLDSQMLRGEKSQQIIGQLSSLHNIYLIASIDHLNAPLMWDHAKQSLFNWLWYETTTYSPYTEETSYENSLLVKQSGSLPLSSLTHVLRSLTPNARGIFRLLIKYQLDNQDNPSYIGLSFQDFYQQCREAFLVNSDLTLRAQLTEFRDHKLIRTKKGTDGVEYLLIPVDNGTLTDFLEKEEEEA
T1 sequence (Q9UBD5 whole entry partner, the tested form may be a part): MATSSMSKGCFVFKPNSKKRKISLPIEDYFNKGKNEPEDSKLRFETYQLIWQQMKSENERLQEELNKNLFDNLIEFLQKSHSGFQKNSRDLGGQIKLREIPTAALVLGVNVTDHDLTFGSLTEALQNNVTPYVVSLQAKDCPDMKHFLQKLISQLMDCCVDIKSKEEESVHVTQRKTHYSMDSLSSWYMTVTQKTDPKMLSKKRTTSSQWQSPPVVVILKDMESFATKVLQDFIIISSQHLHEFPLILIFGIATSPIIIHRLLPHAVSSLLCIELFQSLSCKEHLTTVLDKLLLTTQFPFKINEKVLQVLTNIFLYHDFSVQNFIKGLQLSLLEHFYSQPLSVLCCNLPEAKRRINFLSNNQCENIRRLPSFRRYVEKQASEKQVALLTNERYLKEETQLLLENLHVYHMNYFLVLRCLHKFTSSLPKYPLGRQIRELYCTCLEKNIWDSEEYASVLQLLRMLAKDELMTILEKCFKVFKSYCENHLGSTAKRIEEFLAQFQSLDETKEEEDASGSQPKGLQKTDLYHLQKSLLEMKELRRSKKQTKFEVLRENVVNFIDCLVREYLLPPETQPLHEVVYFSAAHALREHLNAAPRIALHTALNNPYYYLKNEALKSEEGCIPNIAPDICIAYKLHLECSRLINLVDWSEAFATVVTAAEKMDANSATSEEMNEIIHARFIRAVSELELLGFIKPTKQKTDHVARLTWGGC
T1 sequence (O43913 whole entry partner, the tested form may be a part): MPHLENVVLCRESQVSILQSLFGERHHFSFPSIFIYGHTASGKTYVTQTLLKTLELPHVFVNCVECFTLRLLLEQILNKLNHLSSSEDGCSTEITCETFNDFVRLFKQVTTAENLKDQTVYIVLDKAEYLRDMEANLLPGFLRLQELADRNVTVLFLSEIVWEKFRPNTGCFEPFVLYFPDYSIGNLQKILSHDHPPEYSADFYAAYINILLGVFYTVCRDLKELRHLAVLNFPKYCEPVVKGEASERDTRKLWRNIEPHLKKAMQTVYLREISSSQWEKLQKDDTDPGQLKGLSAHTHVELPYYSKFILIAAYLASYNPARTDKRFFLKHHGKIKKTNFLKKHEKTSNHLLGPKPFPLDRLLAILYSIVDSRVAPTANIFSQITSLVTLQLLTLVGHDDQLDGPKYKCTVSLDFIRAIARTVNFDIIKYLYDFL
Description: NADH-coupled steady-state ATPase assay. The conditions noted are these: ATP 0.13 uM to 0.5 mM, 1 uM ORC, 10 mM Mg acetate, 300 mM K glutamate, pH 7.6, 37 C; ORC1-ORC4 ATPase site. The format is biochemical.

The target of the next series is ORC1-5 (WT, ORC1ΔN) (human, UniProt Q13415;Q13416;Q9UBD5;O43929;O43913 400-861;1-577;1-711;1-436;1-435, N78S). The experiment in a line: fluorescence anisotropy; 1 mM ATP, 10 mM Mg acetate; 25 mM HEPES-KOH pH 7.6, 300 mM K glutamate, 10% glycerol, 1 mM DTT, 10 mM Mg acetate, 0.01% NP-40, 0 or 1 mM ATP, 1 nM DNA, 30 min at 22 °C; Hill fit (Kd,app). The conditions noted are these: protein: recombinant; tags: 6xHis-TEV (ORC1) and MBP-TEV (ORC4), cleaved by TEV; copies: 1;1;1;1;1; label: 5' fluorescein-T on strand 1; blunt (40 bp; possible 1 nt 5' FluorT overhang). On the technique in general: Fluorescence polarisation rises when a labelled molecule tumbles more slowly, as on binding a larger partner.

The target in another series is ORC1-5 ORC4 Y174C (human, UniProt Q13415;Q13416;Q9UBD5;O43929;O43913 400-861;1-577;1-711;1-436;1-435, Y174C;ORC4:N78S). The description is as above. The conditions noted are these: protein: recombinant; tags: 6xHis-TEV (ORC1) and MBP-TEV (ORC4), cleaved by TEV; copies: 1;1;1;1;1; label: 5' fluorescein-T on strand 1; blunt (40 bp; possible 1 nt 5' FluorT overhang).
For a further series, the target named is ORC1-5 ORC1 R720Q (human, UniProt Q13415;Q13416;Q9UBD5;O43929;O43913 400-861;1-577;1-711;1-436;1-435, R720Q;N78S). The description is as above. Conditions: protein: recombinant; tags: 6xHis-TEV (ORC1) and MBP-TEV (ORC4), cleaved by TEV; copies: 1;1;1;1;1; label: 5' fluorescein-T on strand 1; blunt (40 bp; possible 1 nt 5' FluorT overhang).
For the next series, the target named is ORC1-5 ORC1 R666W (human, UniProt Q13415;Q13416;Q9UBD5;O43929;O43913 400-861;1-577;1-711;1-436;1-435, R666W;N78S). Described as above. Conditions: protein: recombinant; tags: 6xHis-TEV (ORC1) and MBP-TEV (ORC4), cleaved by TEV; copies: 1;1;1;1;1; label: 5' fluorescein-T on strand 1; blunt (40 bp; possible 1 nt 5' FluorT overhang).

Consider `Nc1ncnc2c1ncn2[C@@H]1O[C@H](COP(=O)(O)OP(=O)(O)OP(=O)(O)O)[C@@H](O)[C@H]1O` [ATP], for which the “NADH-coupled steady-state ATPase assay” value in series [1] is “with the largest ATP hydrolysis defect observed with ORC1R720Q”.

B1: 40 bp fluorescein dsDNA (dsDNA)
DNA 1: TTTTGAAAAGCAAGCATAAAAGATCTAAACATAAAATCTG
DNA 2: CAGATTTTATGTTTAGATCTTTTATGCTTGCTTTTCAAAA
Take B1: the Kd with ORC1-5 (WT, ORC1ΔN) was 37.6 nM; with ORC1-5 ORC1 R666W, 49.9 nM. Also, the binding result with ORC1-5 ORC4 Y174C and in the series with ORC1-5 ORC1 R720Q was “no binding” each time.
